Measurements from the RNAGym collection of RNA variant scans (doi:10.1093/nar/gkz1192).

B1: CPEB3 Ribozyme (parent)
chain: UAACAGGGGGCCACAGCAGAAGCGUUCACGUCGCAGCCCCUGUCAGAUUCUGGUGAAUCUGCGAAUUCUGCUGUAUAUCUC

Variants of: B1
Experiment: self-cleavage, relative activity (ratio to wild type); higher = more cleavage; in vitro, sequencing
Summary of the method: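 After error-prone PCR and barcoding, CPEB3 ribozyme mutant libraries were transcribed with T7 RNA polymerase at 37°C for 5 hours, then given 15 min with DNase I before an EDTA stop, and they cleaved during both steps. Reverse transcription with template switching preceded Illumina sequencing. Relative activity divides a variant's cleaved/total read fraction by the unmutated ribozyme's. At least 5 reads were required per variant, and three batches were averaged.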

Variant | self-cleavage
G24C U25A | 0.21
U25A A45C | 0.6
U25A A45G | 0.27
U25A A45U | 0.19
G24C U69C | 0.17
G24C U69A | 0
U25A U26C | 0.28
U25A U26A | 0.39
U25A U26G | 0.29
U25A U76A | 0.25
U25A U76C | 0.32
U25C U31A | 0.25
U25C U31C | 0.23
U25C U31G | 0.23
U25A C59U | 0.09
U25C U43A | 0.34
U25C U43C | 0.3
U25C U43G | 0.35
U25C C39A | 0.23
U25C C39U | 0.2
U25C C39G | 0.15
G24A U43A | 0.17
G24A U43C | 0.32
G24A U74G | 0.13

Variant | self-cleavage
G24A U74A | 0.18
U25A C38U | 0.23
U25A C38A | 0.18
U25A G70U | 0.06
U25A G70C | 0.07
G24U U51C | 0.2
G24U U51A | 0.1
G24C A47G | 0.48
U25C C38U | 0.68
U25C C38A | 0.18
U25C C38G | 0.19
U25A A64G | 0.33
U25A A64U | 0.19
U25C C71G | 0.1
U25C C71U | 0.1
U25C C71A | 0.13
U25A U74C | 0.33
U25A U74A | 0.25
U25A G52A | 0.22
U25A G52C | 0.27
U25C C27U | 0.36
U25C C27A | 0.41
G24U C44A | 0.18
U25C U54A | 0.28

Variant | self-cleavage
G24A U51G | 0.11
G24A U51C | 0.31
G24A U51A | 0.15
G24C A57G | 0.11
G24C A57U | 0.11
G24C U54C | 0.14
G24C U54A | 0.13
U25C A47G | 0.27
U25C A47U | 0.23
U25C A77G | 0.27
U25C A77U | 0.26
U25C A77C | 0.3
G24C G63A | 0.18
U25C G46U | 0.2
U25C G46A | 0.28
U25C G46C | 0
U25A U80C | 0.33
U25A U80A | 0.45
U25A U80G | 0.22
G24A U54A | 0.25
G24A U54G | 0.15
G24A U54C | 0.27
G24C U49C | 0.46
U25C C50A | 0.09

Variant | self-cleavage
U25C C50G | 0.37
U25C C50U | 0.27
U25A U72G | 0.06
U25A U72C | 0.22
U25A U72A | 0.3
G24U U80C | 0.41
G24U U80A | 0.22
G24U A77U | 0.15
U25C A35G | 0.31
U25C A35U | 0.24
U25C G33C | 0.16
U25C G33A | 0.25
U25C G33U | 0.15
G24A U31C | 0.15
G24A U31A | 0.2
U25C G73U | 0.43
G24C U48C | 0.22
U25A C27U | 0.15
U25A U66C | 0.23
U25A U66A | 0.31
U25A A47G | 0.33
U25A A47U | 0.27
U25C U48G | 0.39
U25C U48A | 0.31

Variant | self-cleavage
U25C U48C | 0.26
U25C G63C | 0.26
U25C G63A | 0.37
U25C G63U | 0.3
U25A C62U | 0.19
U25A C62A | 0.16
U25A C62G | 0.39
U25A U51A | 0.33
U25A U51C | 0.23
G24U U58C | 0.17
U25C A64C | 0.45
U25C A64U | 0.26
U25C A64G | 0.3
U25A U78G | 0.37
U25A U78C | 0.13
U25A U78A | 0.19
G24C U80C | 0.36
U25C G70A | 0.3
U25C G70C | 0.11
U25A C40A | 0.22
G24U U49A | 0.23
U25A C79U | 0.27
G24C A45U | 0.13
G24C A45G | 0.21

Variant | self-cleavage
U25C C44U | 0.23
U25A C29U | 0.22
U25A C29G | 0.25
G24A U60G | 0.13
G24A U60C | 0.24
G24A U60A | 0.28
G24U A47G | 0.31
U25A G63U | 0.2
U25A G63A | 0.28
G24A U67A | 0.18
G24A U67C | 0.22
G24U A45U | 0.18
G24U A45C | 0.22
U25C A65G | 0.3
U25C A65C | 0.45
U25C A65U | 0.28
U25A U43C | 0.28
U25A U43A | 0.21
U25A U67A | 0.46
U25A U67C | 0.19
U25C C40A | 0.15
U25C C40U | 0.19
U25A G30A | 0.13
U25A G30C | 0.26

Variant | self-cleavage
G24U U26C | 0.11
U25C A28C | 0.15
U25C A28U | 0.25
U25C A28G | 0.28
G24U A35U | 0.19
G24U A35G | 0.9
G24C U67A | 0.21
G24C U67C | 0.11
G24U U72C | 0.52
G24U U72A | 0.11
U25A A65G | 0.28
U25A A65C | 0.08
U25C U26A | 0.28
U25C U26C | 0.27
U25C U26G | 0.31
U25A G73A | 0.36
U25C C34U | 0.25
U25C C34G | 0.27
G24C G73A | 0.16
U25A C50A | 0.41
U25A U69A | 0.27
U25A U69C | 0.25
G24C U72G | 0.2
G24C U72A | 0.19

Variant | self-cleavage
G24C U72C | 0.15
G24C C29A | 0.23
G24A U78C | 0.33
G24A U78G | 0.16
G24A U78A | 0.07
U25C C62U | 0.11
U25C C62G | 0.18
G24A U48C | 0.22
G24C G42A | 0.32
U25C G55C | 0.33
U25C G55A | 0.28
U25C G55U | 0.21
U25C C37U | 0.19
U25C C37A | 0.46
U25A G46A | 0.15
G24C U58C | 0.2
U25C G42U | 0.5
U25C G42C | 0.33
U25C A45U | 0.28
U25C A45G | 0.26
U25C A45C | 0.18
U25A | 0.3
U25C | 0.29
G24U U48C | 0.12

Variant | self-cleavage
G24C G61A | 0.18
U25A U41A | 0.44
U25A U41C | 0.28
U25A U41G | 0.22
U25C C32U | 0.14
U25C C32A | 0.22
G24C G30C | 0.11
G24C U43A | 0.54
G24C U43C | 0.18
U25A C32A | 0.16
U25A C32U | 0.38
G24C A77G | 0.3
G24C A77U | 0.09
G24U C38U | 0.1
U25A C81U | 0.57
U25A C44A | 0.17
U25A G42U | 0.28
U25A G42A | 0.2
U25C U51A | 0.27
U25C U51C | 0.26
U25C U51G | 0.12
G24C U60A | 0.45
G24A U72C | 0.25
G24A U72A | 0.29

Variant | self-cleavage
U25A A57U | 0.18
U25A A57G | 0.3
G24C U66C | 0.26
U25C C29U | 0.47
U25C C29A | 0.3
U25C C29G | 0.24
U25C C59A | 0.16
U25C C59U | 0.28
U25A U60C | 0.21
U25A U60A | 0.29
G24C | 0.31
G24U | 0.3
G24U A64U | 0.3
G24U A64G | 0.18
U25A A56G | 0.27
U25A A56U | 0.27
G24C A75U | 0.33
U25A U49A | 0.19
U25A U49C | 0.22
U25A U49G | 0.19
U25A A77U | 0.23
U25A A77G | 0.18
U25A A77C | 0.19
U25C G30A | 0.33

Variant | self-cleavage
U25C G30C | 0.26
U25C G30U | 0.16
U25C G36U | 0.16
U25C G36A | 0.17
G24A U69A | 0.25
G24A U69C | 0.32
G24A U69G | 0.13
U25A G61A | 0.23
U25A G61U | 0.18
G24C A28G | 0.41
G24C A28U | 0.28
U25C G61C | 0.15
U25C G61U | 0.17
U25C G61A | 0.15
U25A U48C | 0.3
U25A U48A | 0.32
G24U A75G | 0.08
U25A G53A | 0.28
U25C C81G | 0.22
U25C C81A | 0.23
U25C C81U | 0.15
G24C U51A | 0.3
G24C U51C | 0.32
G24U U67A | 0.16

Variant | self-cleavage
G24U U67C | 0.1
U25A C68A | 0.19
U25C G52A | 0.26
U25C G52C | 0.58
U25C G52U | 0.29
G24A U58C | 0.12
G24A U58A | 0.34
U25C C79U | 0.34
U25C C79A | 0.35
U25C C79G | 0.26
G24U U54C | 0.17
U25C A57G | 0.28
U25C A57C | 0.1
U25C A57U | 0.31
G24U A28G | 0.17
G24C A64G | 0.45
G24A U66A | 0.3
G24A U66C | 0.39
U25C U41A | 0.3
U25C U41G | 0.27
U25C U41C | 0.28
U25C A56U | 0.24
U25C A56C | 0.25
U25C A56G | 0.25

Variant | self-cleavage
U25C C68A | 0.24
U25C G53A | 0.43
U25C G53C | 0.15
U25A C37U | 0.34
G24U U41A | 0.23
U25C A75G | 0.23
U25C A75C | 0.35
U25C A75U | 0.34
G24A U41G | 0.12
G24A U41C | 0.3
G24A U41A | 0.21
G24A U80C | 0.59
G24A U80A | 0.24
G24A U76C | 0.26
G24A U49C | 0.21
G24A U49A | 0.39
U25C U49C | 0.21
U25C U49A | 0.3
G24C U31G | 0.34
G24C U31C | 0.1
G24C U31A | 0.19
U25A A75U | 0.32
U25A A75G | 0.23
U25A U31C | 0.17

Variant | self-cleavage
U25A U31A | 0.16
U25A U58A | 0.27
U25A U58G | 0.1
U25A U58C | 0.29
G24U U76A | 0.4
G24C U76C | 0.2
U25A G33C | 0.19
U25A A28G | 0.28
U25A A28C | 0.39
U25A A28U | 0.52
G24C A35G | 0.1
U25A C34A | 0.4
U25A C34U | 0.56
G24U U25A | 0.3
U25A A35U | 0.29
U25A A35G | 0.31
U25A A35C | 0.2
G24U U60A | 0.16
G24U U31C | 0.37
U25A U54C | 0.27
U25A U54A | 0.26
U25A U54G | 0.2
